{"source": "paper PMC5951591", "about": "“Transcriptional repression by ApiAP2 factors is central to chronic toxoplasmosis”", "binders": {"B1": {"name": "PBM motif validation probe (WT, 59 bp) (dsDNA)", "DNA 1": "TTTGTAATATACGCTCCACCGCGTGCACCCCCCTCGACATGCCCCCGTATTGCTGATCG", "DNA 2": "CGATCAGCAATACGGGGGCATGTCGAGGGGGGTGCACGCGGTGGAGCGTATATTACAAA"}, "B2": {"name": "PBM motif validation, unlabeled poly(dC) competitor (dsDNA)", "DNA 1": "B1 DNA 1", "DNA 2": "B1 DNA 2"}, "B3": {"name": "PBM scrambled cold competitor (60 bp) (dsDNA)", "DNA 1": "TACCCTGCCTCTTGTAGTAGTAACGTAAAAGAGGTAACGTGGTCAAATGCGATCAGAGAT", "DNA 2": "ATCTCTGATCGCATTTGACCACGTTACCTCTTTTACGTTACTACTACAAGAGGCAGGGTA"}}, "key": {"GST-AP2IV-4 (AP2 domain) [1]": {"molecular_target": "T1, GST-AP2IV-4 (AP2 domain) (Toxoplasma gondii, UniProt S8FCP8 782-854)", "experiment": "EMSA; 50 ng protein, 20 fmol probe; EMSA: 20 fmol probe, 50 ng protein, 6% PAGE, LightShift Chemiluminescent EMSA kit; buffer, salt, pH and temperature not stated", "settings": "protein: recombinant; tags: GST (N-terminal, pGEX4T3); label: 5'-biotin; blunt"}, "GST-AP2IV-4 (AP2 domain) [2]": {"molecular_target": "T1, GST-AP2IV-4 (AP2 domain)", "experiment": "competition; 300x excess unlabeled against N1; EMSA: 20 fmol probe, 50 ng protein, 6% PAGE, LightShift Chemiluminescent EMSA kit; buffer, salt, pH and temperature not stated", "settings": "protein: recombinant; tags: GST (N-terminal, pGEX4T3); label: none; blunt"}, "GST-AP2IV-4 (AP2 domain) [3]": {"molecular_target": "T1, GST-AP2IV-4 (AP2 domain)", "experiment": "competition; 300x excess unlabeled against N1; did not compete; EMSA: 20 fmol probe, 50 ng protein, 6% PAGE, LightShift Chemiluminescent EMSA kit; buffer, salt, pH and temperature not stated", "settings": "protein: recombinant; tags: GST (N-terminal, pGEX4T3); label: none; blunt"}}, "data": [{"binder": "B1", "values": [{"measurement": "binding result", "setting": "GST-AP2IV-4 (AP2 domain) [1]", "result": "binds"}]}, {"binder": "B2", "values": [{"measurement": "binding result", "setting": "GST-AP2IV-4 (AP2 domain) [2]", "result": "binds"}]}, {"binder": "B3", "values": [{"measurement": "binding result", "setting": "GST-AP2IV-4 (AP2 domain) [3]", "result": "no binding"}]}]}
